From patent US9428726B2, “Modified host cells with efflux pumps” (priority 2010, dated 2016)
“Also recorded” adds a separate entry of the source.

B1: YP_692684: Alcanivorax borkumensis SK2 efflux pump, accession of inner membrane protein, SEQ ID NO:2 (protein, listed as Alcanivorax borkumensis)
chain: MARFFIDRPIFAWVIAIIMMMAGALAIYTLPIEQYPTVAPPQVSIAGNYPGASAKTVEDSVTQVIEQQMNGIDNLLYMSSSSDSFGNAAVNLTFAPGTDPDIAQVQVQNKLQLATPLLPQEVQQQGMQVTKSSDSFLMVAGFTSEDGSLSRADLADYVASNVQDPVSRVPGVGQIQLFGSPYAMRVWLDPNKLNKFDLTPQDVTQTIEVQNNQVASGQLGGAPAVEGQQLNATIIAQTRLEDVDQFENILLKVNPDGSRVFLKDVARVELAAQNYDVQGRYNGQPAAGLAISLATGANALDTAEALRARLAELQPYFPDKMEMVFPYDTTPFVSISIEEVVHTLFEAIILVFLVMYLFLQNFRATLIPTLAVPVVLLGTFAVLAAFGFSINTLTMFGMVLAIGLLVDDAIVVVENVERVMHEEGLPPKEATRKSMGQITGALVGIALVLSAVFVPMAFFPGSTGAIYRQFSITIVSAMVLSVLVALILTPALCATMLKAKDSEHQTDHGFFGWFNRTFDKSSRRYQGSVEKILGRRGRYLFIYVVIVGVLGFSFMRLPSSFLPEEDQGILFTLVTLPAGSTQEQTVKVLEKMEDYYLNEEASAVDGLFTVAGFSFTGRGQNAGMAFVNLKDWSERDLSVDGADNVVARAMGYFSTIREAMMFALNPPSIPELGNASGFDFQLLDQSGQGHEALIQARNQMLGMAAQDPRLAGVRPNGLEDSPQYQIDIDQQKAKALGLSISDINSTLQIAWGSSYVNNFVDRGRVKRVYVQADAPYRMLPENVNDWFVRNNQGKMVPFSTFATGHWTYGSPKLERYNGVSSVNIQGNAAPGYSTGDAMDAMEELSAKLPAGFGFEWTGMSYQERQSGDQAPALYVISLLVVFLCLAALYESWSIPFAVMLVVPLGILGAVLAATFRDLNNDVFFQVGLLTTIGLSAKNAILIAEFALELEQKGEHLLKATLEAVRMRLRPILMTSLAFMLGVTPLMISTGAGAGARNAIGTGVFGGMLTATVLAIFFIPLFYVAVRKLSGVPLDGKKKGKE
B2: NP_745594: Pseudomonas putida KT2440 efflux pump, accession of inner membrane protein, SEQ ID NO:3 (protein, listed as Pseudomonas putida)
chain: MPQFFIDRPVFAWVVALFILLAGALAIPQLPVAQYPNVAPPQVEIYAVYPGASAATMDESVVSLIEQELNGADNLLYFESQSSLGSATITATFAPGTHPDLAQVDVQNRLKVVESRLPRPVTQQGLQVEKVSTGFLLLATLTSEDGKLDETALSDILARNVMDEIRRLKGVGKAQLYGSERAMRIWIDPRKLIGFNLTPNDVAEAIAAQNAQVAPGSIGDLPSRSTQEITANVVVKGQLSSPDEFAAIVLRANPDGSTVTIGDVARVEIGAQEYQYGTRLNGKPATAFSVQLSPGANAMETATLVRAKMQDLARYFPEGVKYDIPYDTSPFVKVSIEQVINTLFEAMLLVFAVMFLFLQNLRYTLIPTLVVPVALMGTFAVMLAMGFSVNVLTLFGMVLAIGILVDDAIVVVENVERIMAEEGLPPKQATRKAMGQISGAIVGITLVLVAVFLPMAFMQGSVGVIYQQFSLSMAVSILFSAFLALSLTPALCATLLKPVAKGEHHERKGFFGWFNRRFESMSNGYQRWVVQALKRSGRYLLVYAVLLAVLGYGFSQLPTAFLPTEDQGYTITDIQLPPGASRMRTEQVAAQIEAHNAEEPGVGNTTLILGFSFSGSGQNAALAFTTLKDWSERGADDSAQSIADRATMAFTQLKDAIAYSVLPPPIDGLGESTGFEFRLQDRGGMGHAELMAARDQLLESASKSKVLTNVREASLAESPQVQLEIDRRQANALGVSFADIGTVLDVAVGSSYVNDFPNQGRMQRVVVQAEGDQRSQVEDLLNIHVRNDSGKMVPLGAFVQARWVSGPVQLTRYNGYPAVSISGEPAAGYSSGEAMAEVERLVAQLPAGTGLEWTGLSLQERLSGSQAPLLMALSLLVVFLCLAALYESWSIPTAVLLVVPLGVLGAVLAVTLRGMPNDVFFKVGLITLIGLSAKNAILIIEFAKHLVDQGVDAADAAVQAARLRLRPIVMTSLAFILGVVPLAIASGASSASQQAIGTGVIGGMLSATLAVVFVPVFFVVVMRLSGRRQAHDSDGQPVPRES

Test system: E. coli DH1 ΔacrAB
Conditions: 2% geranyl acetate, serial dilution competition
Method: In order to screen the efflux pump library against a variety of biofuels we devised a competition-based strategy to select for pumps that improved biofuel tolerance (FIG. 1A). Cells containing plasmids with individual pumps were grown separately and then pooled so that all individual strains were represented equally. This pooled culture was then grown both with and without biofuel, and maintained through serial dilutions every 10-14 hours over a total of 96 hours. At each dilution time point, plasmids from each culture were isolated and a custom microarray was used to quantify the amount of each efflux pump plasmid present in the culture (Methods).
Pooled culture glycerol stocks were used to inoculate M9 minimal medium with 30 μg/ml kanamycin and 10 μM IPTG. The culture was then divided into tubes to a final volume of 5 ml and biofuel was added directly to the tubes. All conditions were prepared in triplicate. Cultures were grown at 37° C. with orbital shaking at 200 rpm for all experiments.
Every 10-14 hours the cultures were diluted 1:100 into 5 ml of fresh M9 minimal medium with kanamycin, IPTG, and biofuel (where applicable). For the time-course assay, cultures were spun down at the completion of a growth cycle and plasmids were isolated. For end point competition assays, plasmid was isolated from the culture after 72 hours of serial dilution.
Custom microarrays (NimbleGen, Roche, USA) were used to measure the relative quantities of the efflux pumps present in the plasmid DNA isolated from the competition cultures. Arrays were designed so that they contained probes for all HAE1 annotated efflux pumps from all sequenced bacterial genomes. 12×135K arrays were used to allow for 12 experiments per slide.
Plasmid DNA was labeled and hybridized following the protocol for NimbleGen Comparative Genomic Hybridization Microarrays with minor modifications (Supporting Methods). Data were normalized using the standard settings for RMA analysis in the NimbleScan software. Probe values were averaged using a custom Matlab script (Mathworks, Inc.). […] For the positive hybridization control, all library plasmids were prepared individually and combined in vitro in equal proportions. For the negative hybridization control, a plasmid with the same vector backbone as those in the library, but no efflux pump, was isolated from DH1 ΔacrAB. Both hybridization controls were labeled and hybridized to the array using the methods described above.
This required the use of a co-solvent in order to accurately pipette small volumes. In both cases dimethylformamide (DMF) was used as the co-solvent. […] Other biofuels were added directly without the use of a co-solvent.

Molecule	outcome of efflux pump in competition
B1	increase survival; also recorded: best pump
B2	survived the competition
